From patent US20110293620A1 come the findings set out here.

Test [1] concerns the target recombinant PR1/HLA-A*0201 monomer (human). Put plainly: SPR (BIAcore 3000), BB7.2 captured on an anti-mouse antibody surface, PR1/HLA-A2 monomer (HLA-A2/beta2m/peptide) as analyte in a concentration series, 25 C, first-order kinetic fit; the box below the panel and the text round it to 162 nM. For orientation: Surface plasmon resonance follows binding to a sensor surface in real time, without labels.

For test [2] the target is unchanged. Put plainly: SPR, Biacore; antibody captured on anti-mouse antibody surface, peptide/HLA-A2 as analyte.

In general, Kd refers to a measure of binding affinity in units of concentration. Take “BB7.2 murine monoclonal antibody (HLA-A*0201 allele-specific mouse IgG2a)”: the Kd in test [1] and in test [2] was 162 nM each time.
